Here are results for five substances from article PMC10569748.

Usually pKa stands for the pH at which an ionisable group is half protonated. One may read the Km as the concentration of substrate that gives half-maximal velocity. In general, kcat refers to the number of substrate molecules converted per active site and unit of time at saturation. One may read the kcat/Km as the second-order rate constant that governs catalysis at low substrate concentration.

Several values for one entry are separate records, joined by “and”; a condition that tells them apart may be missing. Identical values can stand only once.

One series deals with His. As to the kind of experiment: kinetics. Particulars: free enzyme; cited from earlier work.
The test system of another series is Cys. Briefly: kinetics. Particulars: free enzyme; cited from earlier work.
Series [1] has as its system Cc1cc(=O)oc2cc(NC(=O)[C@H](C)NC(=O)[C@H](CCCNC(=N)N)NC(=O)OCc3ccccc3)ccc12. As to the kind of experiment: purified protein. Particulars: pH 7.5, 25 °C, 2% DMSO, 5 mM DTT, 1 mM CHAPS, 1 mM EDTA.
Series [2] relates to Cc1cc(=O)oc2cc(NC(=O)[C@H](CCCNC(=N)N)NC(=O)[C@H](Cc3ccccc3)NC(=O)OCc3ccccc3)ccc12. As to the kind of experiment: purified protein. Particulars: pH 7.5, 25 °C, 2% DMSO, 5 mM DTT, 1 mM CHAPS, 1 mM EDTA.
Series [3] relates to Cc1cc(=O)oc2cc(NC(=O)[C@H](CCCNC(=N)N)NC(=O)[C@H](CCCNC(=N)N)NC(=O)OCc3ccccc3)ccc12. As to the kind of experiment: purified protein. Particulars: pH 7.5, 25 °C, 2% DMSO, 5 mM DTT, 1 mM CHAPS, 1 mM EDTA.
The target in series [4] is Cys25 (UniProt position 158, GSCGSCWAFSA). Briefly: chemical modification. Particulars: free enzyme; cited from earlier work.
In another series the target is His159 (UniProt position 292, GNKVDHAVAAV). Briefly: chemical modification. Particulars: free enzyme; cited from earlier work.
Series [5] addresses T1, Cys25 (UniProt position 147, GQCGSCWAFSA). Briefly: chemical modification. Particulars: 25 °C (general statement for all assays); ligand-free enzyme.
Series [6] deals with T1, Cys25. As to the kind of experiment: kinetics. Particulars: 25 °C; 0.1 (constant); free enzyme (kcat/Km profile).
The target in series [7] is T2, His162 (UniProt position 284, SEQLDHGVLLV). Briefly: kinetics. Particulars: free enzyme (kcat/Km profile).
Series [8] has as its target T2, His162. Briefly: NMR. Particulars: Cys25 covalently modified by K11777; cited from earlier work.

Take “Cathepsin C (dipeptidyl peptidase I) (Homo sapiens)”: the figures for the pKa in the series with His and in the series on Cys were 6.5 and 4.3, respectively.

As to cruzain (Trypanosoma cruzi), in series [1], the Km stood at 38 ± 2 µM, the kcat was found to be 0.89 ± 0.06 s⁻¹ and the kcat/Km worked out at 23000 ± 3000 M⁻¹ s⁻¹. Further, in [2], the Km was determined as 0.62 ± 0.02 µM, the kcat is 17 ± 2 s⁻¹ and the kcat/Km was 2.7e+07 ± 4e+06 M⁻¹ s⁻¹. In addition, in series [3], the Km was determined as 3.7 ± 0.4 µM, the kcat came out at 7.2 ± 0.1 s⁻¹ and the kcat/Km came out at 1.9e+06 ± 200000 M⁻¹ s⁻¹.

With Papain (Carica papaya), the pKa with Cys25 [4] was 4.0; with His159, 8.4.

As for “Cruzain (cruzipain catalytic domain) (Trypanosoma cruzi)”, the pKa with Cys25 [5] was 9.76 ± 0.04; with Cys25 [6], 9.6 ± 0.1; with His162 [7] (25 °C, 0.1 (constant), sticky substrate), 6.2 ± 0.4 and 6.0 ± 0.1; in the series with His162 [7] (25 °C), 6.2 ± 0.1; in the series with His162 [7] (40 °C), 5.9 ± 0.1.

Regarding “Cruzain covalently complexed with K11777 (Trypanosoma cruzi)”, the pKa in the series with His162 [8] is listed as 5.2–5.3.
